IC50, pseudovirus neutralization data for one molecule are collected here from patent US20240360203A1.

The target in this test is SARS-CoV-2 BA.4/5+K444T Spike on pseudovirus (SARS-CoV-2), P0DTC2. Description: cell-based or functional assay.

B1: AB-1 (antibody, V domains shown)
VH: EVQLVESGAEVKKPGESLKISCKGSGYTFTRYWIGWVRQMPGKGLEWMGIIYPGDSDVRYSPSFQGHVTISADKSISTAYLQWNSLKASDTAMYYCARLPQYCSKGVCYRWFDPWGQGTLVTVSS
VL: EIVLTQSPSSVSASVGDRVTITCRASQGISSWLAWYQQKPGKAPKLLIYAASSLQSGVPSRFSGSGSGTDFTLTISSLQPEDFATYYCQQGHSFPYTFGQGTNLEIK
B1 showed an IC50, pseudovirus neutralization of 9.4 ng/mL.
